Source: the supplement of paper PMC7125110
± gives the standard error. Variants at the floor of the assay were thinned out.

B1: glmS ribozyme (parent)
chain: AUAAAAGCGCCAGAACUACAGAAAUGUAGUUGACGAGGAGGAGGUUUAUCGAAUUUUCGGCGGAUGCCUCCAAA

Variants of: B1
Assay: self-cleavage kobs at 2500 uM GlcN6P; higher = faster cleavage; RNA array
Details: with glucosamine-6-phosphate
How it was run: (§1)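 Glucosamine-6-phosphate in HEPES/KCl/Mg(OAc)2 buffer, at 40 μM to 10 mM, was flowed over barcoded ribozyme variants transcribed in situ by E. coli RNA polymerase on sequenced MiSeq chips. Tracking was through a hybridised Cy3 probe at 37 °C. kobs, kcat and KM came from exponential decay fits and weighted Michaelis–Menten fits of normalised per-tile medians.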

| Variant | self-cleavage kobs at 2500 uM GlcN6P [s⁻¹] |
| --- | --- |
| C8G G40U G41C | < 1e-05 |
| C16U G37C G51C G59C G60C | < 1e-05 |
| U30A G37A G59C | < 1e-05 |
| G32A G51U | < 1e-05 |
| A6G G7C A36U A39U | < 1e-05 |

Variants of: B1
Assay: self-cleavage kobs at 10000 uM GlcN6P; higher = faster cleavage; RNA array
Details: with glucosamine-6-phosphate
How it was run: as §1

| Variant | self-cleavage kobs at 10000 uM GlcN6P [s⁻¹] |
| --- | --- |
| C10G C71A | < 1e-05 |
| G41U G51U A53C | < 1e-05 |
| A12G G51C G60U | < 1e-05 |
| U30C G41A U54C | < 1e-05 |
| A14C A52U A53C | < 1e-05 |
| G7C A39C C61A C67A | < 1e-05 |
| C10A G13U G44A | < 1e-05 |
| C8A A15U U47C U69A | < 1e-05 |
| A15G C16U G29C | 0.00377 ± 0.00075 |
| C10G C16G A53G C68U | < 1e-05 |
| U31A A33C | 4.61e-05 ± 1.8e-05 |
| U49C C68A | < 1e-05 |
| G35C G37A C68G | 4.58e-05 ± 2e-05 |
| G13C A33G G41U | < 1e-05 |
| G13C G35U U47C A48C C61G C70U | < 1e-05 |
| A12U G13U U31C G40A G44A U56A | < 1e-05 |
| A39U C67G C71A | 7.84e-05 ± 1.5e-05 |
| A15G G41A U54A | 9.17e-05 ± 2.8e-05 |
| C8G G40C G59C C67G C71U | < 1e-05 |
| C16A U46C U55C | 7.09e-05 ± 1.6e-05 |
| U31A A36C | < 1e-05 |
| C16A U30C C61G | < 1e-05 |
| A39G U46G | 0.018 ± 0.0054 |
| C8A G9A C10U A33G A36G A39U U47C C58A | < 1e-05 |
| A12C G13U C61U G62U | < 1e-05 |
| G29U C34A G59A U65C | < 1e-05 |
| C19A G35C U47C U49G G51U C68U C71U | < 1e-05 |

| Variant | self-cleavage kobs at 10000 uM GlcN6P [s⁻¹] |
| --- | --- |
| G32A U57C G62A C67G | < 1e-05 |
| G7A G35A A36G | < 1e-05 |
| C11A U30C A39G | 0.000114 ± 2.3e-05 |
| G32A C34U G51C | < 1e-05 |
| G35A G37C U47C | < 1e-05 |
| A15G U65A G66U | 0.000274 ± 4.1e-05 |
| C34U G37U U46C U47A G62A | < 1e-05 |
| A14C G37A U45A U49A C50A C58U | < 1e-05 |
| C10U U49G C61U | < 1e-05 |
| G13A C58U | 8.94e-05 ± 8.9e-06 |
| C16G G29A G32A | 0.00144 ± 0.00032 |
| C16A G29C A39C | 0.000349 ± 6.1e-05 |
| C34U G40U A42U | < 1e-05 |
| A14U A42G C58A | 0.000409 ± 0.00014 |
| A33G C58U C67U | < 1e-05 |
| A36U G40A G63U | < 1e-05 |
| A14U G37C A64C | < 1e-05 |
| U30G A48C | 5.11e-05 ± 1.6e-05 |
| C16G G38C G40C U45A A52G | < 1e-05 |
| G37A A42C | 2.95e-05 ± 8.6e-06 |
| A33C G38U G41U G43A U56A | < 1e-05 |
| A12U A15G U46G | 0.00932 ± 0.0019 |
| A6G A33C A64G | < 1e-05 |
| G9U A15U A42C U57G | < 1e-05 |
| G26U U30G C71U | 0.000403 ± 6.4e-05 |
| A39U U65A | 0.00166 ± 0.00039 |
| A12C A15U G40U | 0.00018 ± 4e-05 |

| Variant | self-cleavage kobs at 10000 uM GlcN6P [s⁻¹] |
| --- | --- |
| U17A A18C C19A A20G A52G U57G C67A | 8.22e-05 ± 1.7e-05 |
| G29A G66U C68U | 3.63e-05 ± 1.6e-05 |
| A14G G32A A52G | 0.000409 ± 0.00011 |
| G7A A14G A39G C71U | 5.55e-05 ± 1.7e-05 |
| G13U C58U | 6.77e-05 ± 6.2e-06 |
| A42U U56C C71U | 5.21e-05 ± 2e-05 |
| A14U A15G G41U | 0.000237 ± 5.3e-05 |
| G41U A53G C68U | 4.96e-05 ± 1.3e-05 |
| G7A C10G C19A U47A G51A | < 1e-05 |
| C8A G29U A52U U55A C71G | < 1e-05 |
| G29U U31G G32C C67A C68G | 5.79e-05 ± 2.8e-05 |
| G13U G44C U56C | < 1e-05 |
| A6U A36C C58G | < 1e-05 |
| G41C U56A G59C | < 1e-05 |
| G29A G32U A52G | 3.76e-05 ± 1.7e-05 |
| G37A G41U G59C G66U | < 1e-05 |
| G29C A36C | < 1e-05 |
| A42G G59U | 4.33e-05 ± 9.8e-06 |
| A48U A52C G60A A64C | < 1e-05 |
| C8G U45G U55C C71A | < 1e-05 |
| C16U G32A C58A U69A | 7.78e-05 ± 1.2e-05 |
| G35C A39C G41U U49G | < 1e-05 |
| G29C A52U A53C C68G | < 1e-05 |
| C8A G29C U46A | < 1e-05 |
| G35C A39U G41C C61A | < 1e-05 |
| A14U G35A A48G U54C C70G | < 1e-05 |
